# Changes are numbered by the printed parent chain. Where two headings read alike, the source gives them in different places.
# T1: LuxR (Vibrio harveyi, UniProt P21308 1-205)
# T1 sequence: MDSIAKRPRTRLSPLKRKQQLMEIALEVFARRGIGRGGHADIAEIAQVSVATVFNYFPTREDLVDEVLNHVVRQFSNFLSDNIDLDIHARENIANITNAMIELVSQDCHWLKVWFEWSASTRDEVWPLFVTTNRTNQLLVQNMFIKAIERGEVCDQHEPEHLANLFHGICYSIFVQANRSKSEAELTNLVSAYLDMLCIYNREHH
# T2: LuxR N55I (Vibrio harveyi, UniProt P21308 1-205, N55I)
# T2 sequence: T1 sequence with N55I
# T3: LuxR L139P (Vibrio harveyi, UniProt P21308 1-205, L139P)
# T3 sequence: T1 sequence with L139P
# T4: LuxR T52M/I24V (Vibrio harveyi, UniProt P21308 1-205, T52M;I24V)
# T4 sequence: T1 sequence with I24V, T52M
# B1: PluxC site 3 (dsDNA)
# DNA 1: TTATTTAAATGATATAAATATAAATAACATCA
# DNA 2: TGATGTTATTTATATTTATATCATTTAAATAA
# B2: PluxC site 2 (dsDNA)
# DNA 1: ACTAATTATAAATAAATCAAACTATAATTAGA
# DNA 2: TCTAATTATAGTTTGATTTATTTATAATTAGT
# B3: aphA promoter BS* randomized 31mer (dsDNA)
# DNA 1: TTTACGTTACTTGTTGGTAAATTTTATATAT
# DNA 2: ATATATAAAATTTACCAACAAGTAACGTAAA
# B4: P05222 28 bp (dsDNA)
# DNA 1: CTAGTACTGACAAAAAAGTTAATATTTT
# DNA 2: AAAATATTAACTTTTTTGTCAGTACTAG
# B5: P05222 site G to T + T to C (dsDNA)
# DNA 1: GTGCAACAAAATATTGACTTTTTTGTCAGTAAGGATCCGGTGATTG
# DNA 2: CAATCACCGGATCCTTACTGACAAAAAAGTCAATATTTTGTTGCAC
# B6: P05222 site 31mer (dsDNA)
# DNA 1: CTAGTACTGACAAAAAAGTTAATATTTTGTT
# DNA 2: AACAAAATATTAACTTTTTTGTCAGTACTAG
# B7: PluxC site 1 (dsDNA)
# DNA 1: TTACTTATTTATAGTGTTACAAATAACATTA
# DNA 2: TAATGTTATTTGTAACACTATAAATAAGTAA
# What was measured:
# Assay in all cases: EMSA
# LuxR [1] = target: T1, LuxR
# LuxR N55I [2] = target: T2, LuxR N55I
# LuxR L139P = target: T3, LuxR L139P
# LuxR [3] = target: T1, LuxR; remark: listed apart in the source
# LuxR [4] = target: T1, LuxR; remark: listed apart in the source
# LuxR [5] = target: T1, LuxR; remark: listed apart in the source
# LuxR T52M/I24V [6] = target: T4, LuxR T52M/I24V
# LuxR T52M/I24V [7] = target: T4, LuxR T52M/I24V; remark: listed apart in the source
# LuxR [8] = target: T1, LuxR; remark: listed apart in the source
# LuxR N55I [9] = target: T2, LuxR N55I; remark: listed apart in the source
binder,measurement,setting,value
B1,Kd,LuxR [1],0.6 nM
B2,Kd,LuxR [1],103 nM
same,binding result,LuxR N55I [2],no binding
same,binding result,LuxR L139P,binds
B3,binding result,LuxR [3],no binding
B4,binding result,LuxR [4],binds
B5,binding result,LuxR [5],binds
same,binding result,LuxR T52M/I24V [6],binds
B6,Kd,LuxR [1],0.7 nM
same,Kd,LuxR T52M/I24V [7],56.6 nM
B7,binding result,LuxR T52M/I24V [7],no binding
same,binding result,LuxR [8],binds
same,binding result,LuxR N55I [9],binds
same,binding result,LuxR L139P,binds
